# Test results: article PMC7961048 (2021)
# Like-named read-outs stand apart in the source and are kept apart here.
# B1: unfused 14-3-3τ devoid of the flexible C-terminal tail (domain or fragment)
# chain: MEKTELIQKAKLAEQAERYDDMATCMKAVTEQGAELSNEERNLLSVAYKNVVGGRRSAWRVISSIEQKTDTSDKKLQLIKDYREKVESELRSICTTVLELLDKYLIANATNPESKVFYLKMKGDYFRYLAEVACGDDRKQTIDNSQGAYQEAFDISKKEMQPTHPIRLGLALNFSVFYYEILNNPELACTLAKTAFDEAIAELDTLNEDSYKDSTLIMQLLRDNLTLWT
# B2: unfused 14-3-3ε devoid of the flexible C-terminal tail (domain or fragment)
# chain: MDDREDLVYQAKLAEQAERYDEMVESMKKVAGMDVELTVEERNLLSVAYKNVIGARRASWRIISSIEQKEENKGGEDKLKMIREYRQMVETELKLICCDILDVLDKHLIPAANTGESKVFYYKMKGDYHRYLAEFATGNDRKEAAENSLVAYKAASDIAMTELPPTHPIRLGLALNFSVFYYEILNSPDRACRLAKAAFDDAIAELDTLSEESYKDSTLIMQLLRDNLTLWTS
# B3: full-length human 14-3-3τ fused to the C terminus of MBP (natural protein)
# chain: MEKTELIQKAKLAEQAERYDDMATCMKAVTEQGAELSNEERNLLSVAYKNVVGGRRSAWRVISSIEQKTDTSDKKLQLIKDYREKVESELRSICTTVLELLDKYLIANATNPESKVFYLKMKGDYFRYLAEVACGDDRKQTIDNSQGAYQEAFDISKKEMQPTHPIRLGLALNFSVFYYEILNNPELACTLAKTAFDEAIAELDTLNEDSYKDSTLIMQLLRDNLTLWTSDSAGEECDAAEGAEN
# B4: full-length human 14-3-3ε fused to the C terminus of MBP (natural protein)
# chain: MDDREDLVYQAKLAEQAERYDEMVESMKKVAGMDVELTVEERNLLSVAYKNVIGARRASWRIISSIEQKEENKGGEDKLKMIREYRQMVETELKLICCDILDVLDKHLIPAANTGESKVFYYKMKGDYHRYLAEFATGNDRKEAAENSLVAYKAASDIAMTELPPTHPIRLGLALNFSVFYYEILNSPDRACRLAKAAFDDAIAELDTLSEESYKDSTLIMQLLRDNLTLWTSDMQGDGEEQNKEALQDVEDENQ
# B5: full-length human 14-3-3β fused to the C terminus of MBP (natural protein)
# chain: MTMDKSELVQKAKLAEQAERYDDMAAAMKAVTEQGHELSNEERNLLSVAYKNVVGARRSSWRVISSIEQKTERNEKKQQMGKEYREKIEAELQDICNDVLELLDKYLIPNATQPESKVFYLKMKGDYFRYLSEVASGDNKQTTVSNSQQAYQEAFEISKKEMQPTHPIRLGLALNFSVFYYEILNSPEKACSLAKTAFDEAIAELDTLNEESYKDSTLIMQLLRDNLTLWTSENQGDEGDAGEGEN
# B6: full-length human 14-3-3σ fused to the C terminus of MBP (natural protein)
# chain: MERASLIQKAKLAEQAERYEDMAAFMKGAVEKGEELSCEERNLLSVAYKNVVGGQRAAWRVLSSIEQKSNEEGSEEKGPEVREYREKVETELQGVCDTVLGLLDSHLIKEAGDAESRVFYLKMKGDYYRYLAEVATGDDKKRIIDSARSAYQEAMDISKKEMPPTNPIRLGLALNFSVFHYEIANSPEEAISLAKTTFDEAMADLHTLSEDSYKDSTLIMQLLRDNLTLWTADNAGEEGGEAPQEPQS
# B7: unfused 14-3-3β devoid of the flexible C-terminal tail (domain or fragment)
# chain: MTMDKSELVQKAKLAEQAERYDDMAAAMKAVTEQGHELSNEERNLLSVAYKNVVGARRSSWRVISSIEQKTERNEKKQQMGKEYREKIEAELQDICNDVLELLDKYLIPNATQPESKVFYLKMKGDYFRYLSEVASGDNKQTTVSNSQQAYQEAFEISKKEMQPTHPIRLGLALNFSVFYYEILNSPEKACSLAKTAFDEAIAELDTLNEESYKDSTLIMQLLRDNLTLWT
# B8: full-length human 14-3-3η fused to the C terminus of MBP (natural protein)
# chain: MGDREQLLQRARLAEQAERYDDMASAMKAVTELNEPLSNEDRNLLSVAYKNVVGARRSSWRVISSIEQKTMADGNEKKLEKVKAYREKIEKELETVCNDVLSLLDKFLIKNCNDFQYESKVFYLKMKGDYYRYLAEVASGEKKNSVVEASEAAYKEAFEISKEQMQPTHPIRLGLALNFSVFYYEIQNAPEQACLLAKQAFDDAIAELDTLNEDSYKDSTLIMQLLRDNLTLWTSDQQDEEAGEGN
# Key:
# Test in all cases: FP
# [1] = molecular target: T1, HPV33 E6 phospho-PBM peptide p33E6 (human papillomavirus type 33)
# [2] = molecular target: T2, HPV35 E6 phospho-PBM peptide p35E6 (human papillomavirus type 35)
# [3] = molecular target: T1, HPV33 E6 phospho-PBM peptide p33E6; remark: listed apart in the source
# [4] = molecular target: T2, HPV35 E6 phospho-PBM peptide p35E6; remark: listed apart in the source
Binder,Kd [1],Kd [2],Kd [3],Kd [4]
B1,5.15 µM,363 µM,–,–
B2,7.94 µM,> 300 µM,–,–
B3,3.52 µM,233 µM,3.5 µM,233 µM
B4,–,–,10.3 µM,> 300 µM
B5,4.05 µM,–,4.1 µM,> 300 µM
B6,6.77 µM,–,6.8 µM,> 300 µM
B7,6.92 µM,> 400 µM,–,–
B8,1.98 µM,163 µM,2 µM,163 µM
